T1: ACADVL (mouse), P50544
T1 chain: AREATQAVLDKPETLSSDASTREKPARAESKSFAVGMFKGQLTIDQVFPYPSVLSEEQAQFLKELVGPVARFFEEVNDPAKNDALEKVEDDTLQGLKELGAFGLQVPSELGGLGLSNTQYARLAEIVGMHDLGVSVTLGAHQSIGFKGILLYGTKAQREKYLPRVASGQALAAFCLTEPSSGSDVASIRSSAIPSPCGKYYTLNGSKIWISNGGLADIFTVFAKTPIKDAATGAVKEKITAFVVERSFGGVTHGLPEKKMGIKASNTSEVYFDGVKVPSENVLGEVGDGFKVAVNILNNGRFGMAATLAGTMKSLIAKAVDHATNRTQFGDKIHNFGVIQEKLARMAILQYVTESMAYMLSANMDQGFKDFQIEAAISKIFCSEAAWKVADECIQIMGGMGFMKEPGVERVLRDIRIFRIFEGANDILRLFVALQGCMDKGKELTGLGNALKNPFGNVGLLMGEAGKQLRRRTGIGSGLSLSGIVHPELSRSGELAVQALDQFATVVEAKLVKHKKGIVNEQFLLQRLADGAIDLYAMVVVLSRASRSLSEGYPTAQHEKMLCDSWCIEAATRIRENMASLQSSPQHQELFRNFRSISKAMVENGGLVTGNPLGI

B1: ACADVL, P50544 42-656 (natural protein)
chain: AREATQAVLDKPETLSSDASTREKPARAESKSFAVGMFKGQLTIDQVFPYPSVLSEEQAQFLKELVGPVARFFEEVNDPAKNDALEKVEDDTLQGLKELGAFGLQVPSELGGLGLSNTQYARLAEIVGMHDLGVSVTLGAHQSIGFKGILLYGTKAQREKYLPRVASGQALAAFCLTEPSSGSDVASIRSSAIPSPCGKYYTLNGSKIWISNGGLADIFTVFAKTPIKDAATGAVKEKITAFVVERSFGGVTHGLPEKKMGIKASNTSEVYFDGVKVPSENVLGEVGDGFKVAVNILNNGRFGMAATLAGTMKSLIAKAVDHATNRTQFGDKIHNFGVIQEKLARMAILQYVTESMAYMLSANMDQGFKDFQIEAAISKIFCSEAAWKVADECIQIMGGMGFMKEPGVERVLRDIRIFRIFEGANDILRLFVALQGCMDKGKELTGLGNALKNPFGNVGLLMGEAGKQLRRRTGIGSGLSLSGIVHPELSRSGELAVQALDQFATVVEAKLVKHKKGIVNEQFLLQRLADGAIDLYAMVVVLSRASRSLSEGYPTAQHEKMLCDSWCIEAATRIRENMASLQSSPQHQELFRNFRSISKAMVENGGLVTGNPLGI

Tests used:
[1] = biological target: complex I from ndufs4-/- mouse (heart, kidney) (mouse) (UniProt Q91YT0); assay: cryo-EM structure; complex I purified whole from ndufs4-/- mouse heart, cross-linked twice with BS3 (0.25 mM during solubilisation, 2.5 mM before the grids), 0.05% DDM, PEGylated gold grids; focused classification into three classes
ACADVL (mouse), P50544 = biological target: T1, ACADVL (mouse), P50544; assay: as above; details: remark: other sources report otherwise

UniProt Q91YT0, sequence (Q91YT0 whole entry, looked up, one chain of several): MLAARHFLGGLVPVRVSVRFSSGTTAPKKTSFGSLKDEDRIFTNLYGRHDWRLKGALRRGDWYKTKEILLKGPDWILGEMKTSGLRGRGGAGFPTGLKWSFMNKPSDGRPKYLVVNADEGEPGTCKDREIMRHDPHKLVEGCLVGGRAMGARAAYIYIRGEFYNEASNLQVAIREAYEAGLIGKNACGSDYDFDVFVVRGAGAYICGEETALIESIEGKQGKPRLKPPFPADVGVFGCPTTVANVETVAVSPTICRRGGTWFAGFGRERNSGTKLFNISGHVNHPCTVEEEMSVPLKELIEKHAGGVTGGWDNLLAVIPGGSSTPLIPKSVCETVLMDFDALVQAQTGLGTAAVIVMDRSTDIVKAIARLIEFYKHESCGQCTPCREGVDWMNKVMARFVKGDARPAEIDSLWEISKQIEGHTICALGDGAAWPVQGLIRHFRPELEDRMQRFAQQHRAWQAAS

Molecule | percent of the complex I particles that contain it [1] [%] | stoichiometry N (ACADVL (mouse), P50544)
assembly factor NDUFAF2 (natural protein) | 14 | 
B1 |  | 2
